Assay [1] has as its target BiP (Grp78, hsp70 isoform 5) (UniProt P06761). In words: biotin-peptide streptavidin pull-down, LC-MS/MS. The note with it: reference: nonphospho-peptide.
The target of assay [2] is Heat Shock Protein 70 Isoform 1 (hsp70-1). Nature of the assay: biotin-peptide streptavidin pull-down, LC-MS/MS. The note with it: reference: nonphospho-peptide; sites S261.
Assay [3] concerns the target Heat Shock Protein 70 Isoform 2 (hsp70-2) (UniProt P14659). In words: biotin-peptide streptavidin pull-down, LC-MS/MS. The note with it: reference: nonphospho-peptide.
The target of assay [4] is annexin II (UniProt Q07936). Nature of the assay: biotin-peptide streptavidin pull-down, LC-MS/MS. The note with it: reference: nonphospho-peptide.
Assay [5] deals with heat shock cognate 70 (hsc70; hsp70 isoform 8) (UniProt P63018). In words: biotin-peptide streptavidin pull-down, LC-MS/MS. The note with it: reference: nonphospho-peptide.
Assay [6] addresses BiP (Grp78, hsp70 isoform 5) (UniProt P06761). Nature of the assay: biotin-peptide streptavidin pull-down, immunoblot. The conditions noted are these: reference: nonphospho-peptide; sites S256. Background: A western blot detects proteins with antibodies after separation by electrophoresis.

The values below come from publication PMC2693456.

With “aquaporin-2 (AQP2) COOH-terminal peptide COOH-terminal tail (from UniProt P34080) pS261 peptide”, the “other: label-free MS quantification vs no-peptide control (Table 2)” value in assay [1] (sites S261) is on record as “weaker; reference 2.13 ± 0.57”; in assay [2], “weaker; reference 3.41 ± 0.44”; in assay [3] (sites S261), “weaker; reference 4.17 ± 0.38”; in assay [4] (sites S261), “weaker; reference 3.19 ± 0.32”; in assay [5] (sites S261) it was “weaker; reference 5.70 ± 0.27”.
Consider “aquaporin-2 (AQP2) COOH-terminal peptide COOH-terminal tail (from UniProt P34080) pS256 peptide”, for which, in assay [6], the “binding against the reference” value is on record as “stronger”. Also, the “other: label-free MS quantification vs no-peptide control (Table 2)” value in assay [1] (sites S256) was “stronger; reference 2.13 ± 0.57”; in assay [3] (sites S256) it was “weaker; reference 4.17 ± 0.38”; in assay [4] (sites S256), “weaker; reference 3.19 ± 0.32”; in assay [5] (sites S256) it was “weaker; reference 5.70 ± 0.27”.
